{"source": "patent US11311577B2", "about": "“Coordinating gene expression using RNA destabilizing elements” (Chimera Bioengineering, Inc., priority 2018, dated 2022)", "molecules": {"B1": {"name": "modified IL-2, 3′-UTR: IL-2 3′-UTR with MIR186 micro-RNA sites removed, CTT replaced with GAA (SEQ ID NO: 22) (nucleic acid, listed as Homo sapiens)", "DNA": "TAATTAAGTGCTTCCCACTTAAAACATATCAGGCCTTCTATTTATTTAAATATTTAAATTTTATATTTATTGTTGAATGTATGGTTTGCTACCTATTGTAACTATTATTCTTAATCTTAAAACTATAAATATGGATCTTTTATGATTGAATTTGTAAGCCCTAGGGGCTCTAAAATGGTTTCACTTATTTATCCCAAAATATTTATTATTATGTTGAATGTTAAATATAGTATCTATGTAGATTGGTTAGTAAAACTATTTAATAAATTTGATAAATATAAA"}}, "tested_on": "T-cells", "assay": "Removal of microRNA binding sites from an RDE: expression from constructs, GFP in T-cells", "type": "cell-based", "settings": "MIR186 micro-RNA sites removed from the 3′-UTR of IL-2", "excerpt": "The AU-rich element from the 3′-UTR of IL-2 has mir-181 and mir 186 microRNA binding sites. Different combinations of the microRNA sites were removed from the 3′-UTR of IL-2. When the MIR186 micro-RNA sites were removed from the 3′-UTR of IL-2 the dynamic range of expression from constructs with this UTR increased 50 fold. The modified IL-2, 3′-UTR replaces CTT in the sequence with GAA and is shown below (the new GAA is underlined in the sequence):\nDifferent combinations of the micro-RNA sites were removed from the 3′UTR of IFNg and tested for increased expression. When the mir125 micro-RNA sites were removed from the 3′-UTR of IFN-γ the expression rate from constructs with this UTR is increased.\nExpression of GFP in T-cells, transfected with the RDE-GFP plus the microRNA sites, is compared to expression of GFP in T-cells with the RDE-GFP in which the microRNA sites have been removed, following activation with CD3/CD28 beads for 24 hours. The removal of the microRNA sites increased expression of the GFP by a factor of between 2-5 after 24 hours, relative to the cells with microRNA sites."}
{"molecule": "B1", "values": [{"measurement": "increase of dynamic range of expression", "result": 50, "unit": "fold"}]}
